Experimental data taken from patent US20160264649A1.

What was measured:
Assay in all cases: cell-based or functional assay
[1] = target: HIV-1 MGRM-G-014 Env (HIV-1)
[2] = target: HIV-1 IAVI-C3 Env (HIV-1)
[3] = target: HIV-1 THR0.18 (Acute) Env on pseudovirus (HIV-1)
[4] = target: HIV-1 MGRM-AG-005 Env (HIV-1)
[5] = target: HIV-1 TRJ0.58 (Acute) Env on pseudovirus (HIV-1)
[6] = target: HIV-1 MGRM-D-016 Env (HIV-1)
[7] = target: HIV-1 MGRM-C-025 Env on pseudovirus (HIV-1)
[8] = target: HIV-1 MGRM-Chronic-B-024 Env on pseudovirus (HIV-1)
[9] = target: HIV-1 93TH305 Env on pseudovirus (HIV-1)
[10] = target: HIV-1 MGRM-G-016 Env (HIV-1)
[11] = target: HIV-1 MGRM-AG-013 Env (HIV-1)
[12] = target: HIV-1 MGRM-Chronic-B-002 Env on pseudovirus (HIV-1)
[13] = target: HIV-1 MGRM-D-011 Env (HIV-1)
[14] = target: HIV-1 MGRM-Chronic-B-012 Env on pseudovirus (HIV-1)
[15] = target: HIV-1 98IN022 Env on pseudovirus (HIV-1)
[16] = target: HIV-1 MGRM-AG-011 Env (HIV-1)
[17] = target: HIV-1 SC422661.8 (Acute) Env on pseudovirus (HIV-1)
[18] = target: HIV-1 MGRM-Chronic-B-008 Env on pseudovirus (HIV-1)
[19] = target: HIV-1 MGRM-D-020 Env (HIV-1)
[20] = target: HIV-1 MGRM-D-024 Env (HIV-1)
[21] = target: HIV-1 MGRM-C-023 Env on pseudovirus (HIV-1)
[22] = target: HIV-1 MGRM-AG-012 Env (HIV-1)
[23] = target: HIV-1 MGRM-F1-006 Env (HIV-1)
[24] = target: HIV-1 MGRM-F1-016 Env (HIV-1)
[25] = target: HIV-1 92RW020 Env (HIV-1)
[26] = target: HIV-1 MGRM-D-013 Env (HIV-1)
[27] = target: HIV-1 MGRM-G-011 Env (HIV-1)
[28] = target: HIV-1 JRCSF Env on pseudovirus (HIV-1) (UniProt P20871)
[29] = target: HIV-1 MGRM-G-009 Env (HIV-1)
[30] = target: HIV-1 93MW959 Env on pseudovirus (HIV-1)
[31] = target: HIV-1 93IN905 Env on pseudovirus (HIV-1)
[32] = target: HIV-1 MGRM-C-004 Env on pseudovirus (HIV-1)
[33] = target: HIV-1 MGRM-D-004 Env (HIV-1)
[34] = target: HIV-1 SF162 Env on pseudovirus (HIV-1) (UniProt P19550)
[35] = target: HIV-1 MGRM-F1-015 Env (HIV-1)
[36] = target: HIV-1 MGRM-G-025 Env (HIV-1)
[37] = target: HIV-1 MGRM-Chronic-B-020 Env on pseudovirus (HIV-1)
[38] = target: HIV-1 93UG077 Env (HIV-1)
[39] = target: HIV-1 MGRM-F1-004 Env (HIV-1)
[40] = target: HIV-1 JRFL Env on pseudovirus (HIV-1)
[41] = target: HIV-1 MGRM-D-018 Env (HIV-1)
[42] = target: HIV-1 MGRM-D-001 Env (HIV-1)
HIV-1 NL43 Env (HIV-1) = target: HIV-1 NL43 Env (HIV-1)
[43] = target: HIV-1 MGRM-D-029 Env (HIV-1)
[44] = target: HIV-1 MGRM-AG-009 Env (HIV-1)
[45] = target: HIV-1 MGRM-D-003 Env (HIV-1)
[46] = target: HIV-1 MGRM-C-020 Env on pseudovirus (HIV-1)
[47] = target: HIV-1 MGRM-AE-007 Env (HIV-1)
[48] = target: HIV-1 92UG005 Env (HIV-1)
[49] = target: HIV-1 MGRM-F1-021 Env (HIV-1)
[50] = target: HIV-1 QH0692.42 (Acute) Env on pseudovirus (HIV-1)

For 1496_C09 (PG9) (TCN-109) (antibody), the IC50 (µg/ml), pseudovirus neutralization [1] was 6.32 µg/mL, the neutralization IC50 [2] was 12.9 mg/L and the IC50 [3] was 12.4 mg/L. It also gave an IC50 (µg/ml), pseudovirus neutralization [4] of 29.7 µg/mL, an IC50 [5] of 0.43 mg/L and an IC50 (µg/ml), pseudovirus neutralization [6] of 0.1 µg/mL. It also gave an IC50 [7] of 0.17 mg/L, an IC50 [8] of 0.18 mg/L and an IC50 [9] of 2.08 mg/L. For the same substance, the IC50 (µg/ml), pseudovirus neutralization [10] was 0.4 µg/mL, the IC50 (µg/ml), pseudovirus neutralization [11] was 0.23 µg/mL and the IC50 [12] was 1.41 mg/L. The IC50 (µg/ml), pseudovirus neutralization [13] was 0.06 µg/mL, the IC50 [14] was 0.91 mg/L and the IC50 [15] was 0.006 mg/L. For the same substance, the IC50 (µg/ml), pseudovirus neutralization [16] was 0.01 µg/mL, the IC50 [17] was 0.79 mg/L and the IC50 [18] was 6.66 mg/L. It also gave an IC50 (µg/ml), pseudovirus neutralization [19] of 2.03 µg/mL, an IC50 (µg/ml), pseudovirus neutralization [20] of 0.03 µg/mL and an IC50 [21] of 0.51 mg/L. For the same substance, the IC50 (µg/ml), pseudovirus neutralization [22] was 1.37 µg/mL, the IC50 (pseudovirus neutralization) [23] was 1.45 mg/L and the IC50 (pseudovirus neutralization) [24] was 0.58 mg/L. It also gave an IC50, TZM-bl pseudovirus neutralization [25] of 0.1 mg/L, a neutralization IC50 [25] of 0.0637 mg/L and a neutralization IC90 [25] of 6.55 mg/L. The IC50 (µg/ml), pseudovirus neutralization [26] was 0.06 µg/mL, the IC50 (µg/ml), pseudovirus neutralization [27] was 0.19 µg/mL and the IC50 [28] was 0.003 mg/L. The IC50 (µg/ml), pseudovirus neutralization [29] was 4.9 µg/mL, the IC50 [30] was 0.04 mg/L and the IC50 [31] was 0.03 mg/L. For the same substance, the IC50 [32] was 1.18 mg/L and the IC50 (µg/ml), pseudovirus neutralization [33] was 0.03 µg/mL.
For 2F5 (antibody), the IC50 [34] was 2.52 mg/L, the IC50 (µg/ml), pseudovirus neutralization [1] was 9.65 µg/mL and the neutralization IC50 [2] was > 50 mg/L. The IC50 (pseudovirus neutralization) [35] was 0.1 mg/L, the IC50 [3] was > 50 mg/L and the IC50 (µg/ml), pseudovirus neutralization [4] was > 50 µg/mL. For the same substance, the IC50 [5] was > 50 mg/L, the IC50 (µg/ml), pseudovirus neutralization [6] was 9.85 µg/mL and the IC50 [7] was > 50 mg/L. For the same substance, the IC50 (µg/ml), pseudovirus neutralization [36] was > 50 µg/mL, the IC50 [8] was > 50 mg/L and the IC50 [37] was 0.78 mg/L. For the same substance, the neutralization IC50 [38] was 4.45 mg/L, the neutralization IC90 [38] was 33.4 mg/L and the IC50 (pseudovirus neutralization) [39] was 4.31 mg/L. The IC50 [9] was 7.61 mg/L, the IC50 (µg/ml), pseudovirus neutralization [10] was 16.8 µg/mL and the IC50 [40] was 3.54 mg/L. It also gave an IC50 (µg/ml), pseudovirus neutralization [11] of 1.79 µg/mL, an IC50 (µg/ml), pseudovirus neutralization [41] of 4.05 µg/mL and an IC50 [12] of 1.25 mg/L. For the same substance, the IC50 (µg/ml), pseudovirus neutralization [42] was 0.63 µg/mL, the IC50 (µg/ml), pseudovirus neutralization [13] was > 50 µg/mL and the IC50 [14] was 17.6 mg/L. The neutralization IC50 (HIV-1 NL43 Env (HIV-1)) was 2.41 mg/L, the neutralization IC90 (HIV-1 NL43 Env (HIV-1)) was 19.3 mg/L and the IC50 [15] was > 50 mg/L. For the same substance, the IC50 (µg/ml), pseudovirus neutralization [16] was > 50 µg/mL, the IC50 [17] was > 50 mg/L and the IC50 (µg/ml), pseudovirus neutralization [43] was > 50 µg/mL. The IC50 (µg/ml), pseudovirus neutralization [44] was 24.8 µg/mL, the IC50 [18] was > 50 mg/L and the IC50 (µg/ml), pseudovirus neutralization [19] was > 50 µg/mL. For the same substance, the IC50 (µg/ml), pseudovirus neutralization [20] was > 50 µg/mL, the IC50 (µg/ml), pseudovirus neutralization [45] was > 50 µg/mL and the IC50 [21] was > 50 mg/L. The IC50 [46] was > 50 mg/L, the IC50 (µg/ml), pseudovirus neutralization [22] was 0.33 µg/mL and the IC50 (pseudovirus neutralization) [23] was 1.1 mg/L. For the same substance, the IC50 (µg/ml), pseudovirus neutralization [47] was 0.07 µg/mL, the IC50 (µg/ml), pseudovirus neutralization [48] was 8.61 µg/mL and the neutralization IC50 [48] was 11.8 mg/L. For the same substance, the neutralization IC90 [48] was > 50 mg/L, the IC50 (pseudovirus neutralization) [24] was 21.5 mg/L and the neutralization IC50 [25] was 3.37 mg/L. It also gave a neutralization IC90 [25] of 27.7 mg/L, an IC50 (µg/ml), pseudovirus neutralization [26] of 2.12 µg/mL and an IC50 (µg/ml), pseudovirus neutralization [27] of 1.16 µg/mL. The IC50 [28] was 1.85 mg/L, the IC50 (µg/ml), pseudovirus neutralization [29] was 7.21 µg/mL and the IC50 [30] was > 50 mg/L. The IC50 (pseudovirus neutralization) [49] was 1.37 mg/L, the IC50 [31] was > 50 mg/L and the IC50 [32] was > 50 mg/L. It also gave an IC50 [50] of 5.42 mg/L and an IC50 (µg/ml), pseudovirus neutralization [33] of 2.3 µg/mL.
